{"source": "patent US20120021995A1", "about": "(published 2012)", "data": [{"biological_target": "T1, recombinant human TRAIL R1 (DR4)/Fc chimera (human, UniProt O00220 24-239)", "T1 construct": "bought (R&D Systems); not shown: Fc of the bought chimera (R&D Systems)", "T1 sequence": "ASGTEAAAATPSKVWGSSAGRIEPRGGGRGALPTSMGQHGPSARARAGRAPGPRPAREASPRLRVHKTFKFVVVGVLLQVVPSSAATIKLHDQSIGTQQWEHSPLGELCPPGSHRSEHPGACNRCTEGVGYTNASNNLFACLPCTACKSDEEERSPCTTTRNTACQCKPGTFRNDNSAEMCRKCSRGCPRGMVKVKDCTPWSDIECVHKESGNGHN", "assay": "phage ELISA on DR4/Fc", "experimental": "The remaining overnight culture was used to make a master stock plate by adding 100 μL of 50% glycerol to each well and storing at −80° C. The replica culture plate was grown at 37° C. with shaking at 250 rpm for approximately 2 hrs until the OD₆₀₀ was 0.5-0.7. The wells were then infected with K07 helper phage to 5×10⁹ pfu/mL mixed and incubated at 37° C. for 30 minutes without shaking, then incubated an addition 30 minutes at 37° C. with shaking at 250 rpm. The cultures were then spun down at 2500 rpm and 4° C. for 20 minutes. The supernatants were removed from the wells and the bacterial cell pellets were re-suspended in 500 μL of 2xYT containing 50 μg/mL carbenicillin and 50 μg/mL kanamycin. An air-permeable membrane was placed on the culture block and cells were grown overnight at room temperature with shaking at 250 rpm.\nOn day 3, cultures were spun down and supernatants containing the phage were blocked with 3% milk/PBS for 1 hr at room temperature. An initial Phage ELISA was performed using 75-100 ng of antigen bound per well. Non-specific binding was measured using 75-100 ng of human IgG1 Fc per well. DR4/Fc antigen (R&D Systems)-coated wells and IgG Fc coated wells were prepared fresh the night before by binding the above amount of antigen diluted in 100 μL of PBS per well. Antigen plates were incubated overnight at 4° C. then for 1 hour at 37° C., washed twice with PBS/0.05% Tween 20 and twice with PBS, and then blocked with 3% milk/PBS for 1 hr at 37° C. prior to the ELISA. Blocked phage were bound to blocked antigen-bound plates for 1 hr then washed twice with 0.05% Tween 20/PBS and then twice more with PBS. A HRP-conjugated anti-M13 secondary antibody diluted in 3% milk/PBS was then applied, with binding for 1 hr and washing as described above. The ELISA signal was developed using 90 μL TMB substrate mix and then stopped with 90 μL 0.2 M sulfuric acid, then ELISA plates were read at 450 nm. […] Secondary ELISA screens were performed similarly to the protocol detailed above.", "values": [{"binder": "064-40.1C7 (designed binder, on phage) ALQTVCLKGTKVHMKCFLAFTQTKTFHEASEDCISRGGTLSTPQTGSENDALYEYLRQSVGNEAEIWLGLNGWLEGVGWVDMTGARIAYKNWETEITAQPDGGGGVRWENCAVLSGAANGKWFDKRCRDQLPYICQFGIV", "binding result": "binds"}, {"binder": "014-42.3G8 (designed binder, on phage) ALQTVCLKGTKVHMKCFLAFTQTKTFHEASEDCISRGGTLSTPQTGSENDALYEYLRQSVGNEAEIWLGLNGWLQGVGWVDMTGARIAYKNWETEITAQPDGGRGWPWENCAVLSGAANGKWFDKRCRDQLPYICQFGIV", "binding result": "binds"}, {"binder": "064-36.1E12 (designed binder, on phage) ALQTVCLKGTKVHMKCFLAFTQTKTFHEASEDCISRGGTLSTPQTGSENDALYEYLRQSVGNEAEIWLGLNGCTQGQGWVDMTGARIAYKNWETEITAQPDGGKKWKWENCAVLSGAANGKWFDKRCRDQLPYICQFGIV", "binding result": "binds"}, {"binder": "064-36.1E4 (designed binder, on phage) ALQTVCLKGTKVHMKCFLAFTQTKTFHEASEDCISRGGTLSTPQTGSENDALYEYLRQSVGNEAEIWLGLNVLRLAWSWVDMTGARIAYKNWETEITAQPDGGKRNGCENCAVLSGAANGKWFDKRCRDQLPYICQFGIV", "binding result": "binds"}, {"binder": "014-40.3A3 (designed binder, on phage) ALQTVCLKGTKVHMKCFLAFTQTKTFHEASEDCISRGGTLSTPQTGSENDALYEYLRQSVGNEAEIWLGLNGFMVGRGWVDMTGARIAYKNWETEITAQPDGGSMWPWENCAVLSGAANGKWFDKRCRDQLPYICQFGIV", "binding result": "binds"}, {"binder": "064-21.1A5 (designed binder, on phage) ALQTVCLKGTKVHMKCFLAFTQTKTFHEASEDCISRGGTLSTPQTGSENDALYEYLRQSVGNEAEIWLGLNGFLQGNGWVDMTGARIAYKNWETEITAQPDGGMWDRWENCAVLSGAANGKWFDKRCRDQLPYICQFGIV", "binding result": "binds"}, {"binder": "014-40.3B3 (designed binder, on phage) ALQTVCLKGTKVHMKCFLAFTQTKTFHEASEDCISRGGTLSTPQTGSENDALYEYLRQSVGNEAEIWLGLNGYMSGYGWVDMTGARIAYKNWETEITAQPDGGMMARWENCAVLSGAANGKWFDKRCRDQLPYICQFGIV", "binding result": "binds"}, {"binder": "029-62.7D10 (designed binder, on phage) ALQTVCLKGTKVHMKCFLAFTQTKTFHEASEDCISRGGTLSTPQTGSENDALYEYLRQSVGNEAEIWLGLNGLARQQGWVDMTGARIAYKNWETEITAQPDGGKGRPRENCAVLSGAANGKWFDKRCRDQLPYICQFGIV", "binding result": "binds"}, {"binder": "064-36.1G10 (designed binder, on phage) ALQTVCLKGTKVHMKCFLAFTQTKTFHEASEDCISRGGTLSTPQTGSENDALYEYLRQSVGNEAEIWLGLNGYLQGSGWVDMTGARIAYKNWETEITAQPDGGWKTRWENCAVLSGAANGKWFDKRCRDQLPYICQFGIV", "binding result": "binds"}, {"binder": "014-40.3E9 (designed binder, on phage) ALQTVCLKGTKVHMKCFLAFTQTKTFHEASEDCISRGGTLSTPQTGSENDALYEYLRQSVGNEAEIWLGLNPFRVPQWWVDMTGARIAYKNWETEITAQPDGGYGPVQENCAVLSGAANGKWFDKRCRDQLPYICQFGIV", "binding result": "binds"}, {"binder": "029-61.1A5 (designed binder, on phage) ALQTVCLKGTKVHMKCFLAFTQTKTFHEASEDCISRGGTLSTPQTGSENDALYEYLRQSVGNEAEIWLGLNGWLMGTGWVDMTGARIAYKNWETEITAQPDGGWWNRWENCAVLSGAANGKWFDKRCRDQLPYICQFGIV", "binding result": "binds"}, {"binder": "029-62.2C5 (designed binder, on phage) ALQTVCLKGTKVHMKCFLAFTQTKTFHEASEDCISRGGTLSTPQTGSENDALYEYLRQSVGNEAEIWLGLNVRRMGFHWVDMTGARIAYKNWETEITAQPDGGRVAVGENCAVLSGAANGKWFDKRCRDQLPYICQFGIV", "binding result": "binds"}, {"binder": "064-36.1E1 (designed binder, on phage) ALQTVCLKGTKVHMKCFLAFTQTKTFHEASEDCISRGGTLSTPQTGSENDALYEYLRQSVGNEAEIWLGLNIWPLRFRWVDMTGARIAYKNWETEITAQPDGGFVTRKENCAVLSGAANGKWFDKRCRDQLPYICQFGIV", "binding result": "binds"}, {"binder": "014-40.3H2 (designed binder, on phage) ALQTVCLKGTKVHMKCFLAFTQTKTFHEASEDCISRGGTLSTPQTGSENDALYEYLRQSVGNEAEIWLGLNMVTRPPYWVDMTGARIAYKNWETEITAQPDGGWVMSFENCAVLSGAANGKWFDKRCRDQLPYICQFGIV", "binding result": "binds"}, {"binder": "014-42.3C7 (designed binder, on phage) ALQTVCLKGTKVHMKCFLAFTQTKTFHEASEDCISRGGTLSTPQTGSENDALYEYLRQSVGNEAEIWLGLNGWLEGYGWVDMTGARIAYKNWETEITAQPDGGTWWEWENCAVLSGAANGKWFDKRCRDQLPYICQFGIV", "binding result": "binds"}, {"binder": "029-62.2B3 (designed binder, on phage) ALQTVCLKGTKVHMKCFLAFTQTKTFHEASEDCISRGGTLSTPQTGSENDALYEYLRQSVGNEAEIWLGLNRYHVQALWVDMTGARIAYKNWETEITAQPDGGRVRPRENCAVLSGAANGKWFDKRCRDQLPYICQFGIV", "binding result": "binds"}, {"binder": "029-62.4F5 (designed binder, on phage) ALQTVCLKGTKVHMKCFLAFTQTKTFHEASEDCISRGGTLSTPQTGSENDALYEYLRQSVGNEAEIWLGLNIQCSPPLWVDMTGARIAYKNWETEITAQPDGGAVQQQENCAVLSGAANGKWFDKRCRDQLPYICQFGIV", "binding result": "binds"}, {"binder": "064-36.1D7 (designed binder, on phage) ALQTVCLKGTKVHMKCFLAFTQTKTFHEASEDCISRGGTLSTPQTGSENDALYEYLRQSVGNEAEIWLGLNVRHWLQLWVDMTGARIAYKNWETEITAQPDGGGWWKGENCAVLSGAANGKWFDKRCRDQLPYICQFGIV", "binding result": "binds"}, {"binder": "014-40.3E11 (designed binder, on phage) ALQTVCLKGTKVHMKCFLAFTQTKTFHEASEDCISRGGTLSTPQTGSENDALYEYLRQSVGNEAEIWLGLNGYLAGYGWVDMTGARIAYKNWETEITAQPDGGPSIWRENCAVLSGAANGKWFDKRCRDQLPYICQFGIV", "binding result": "binds"}, {"binder": "014-40.3B2 (designed binder, on phage) ALQTVCLKGTKVHMKCFLAFTQTKTFHEASEDCISRGGTLSTPQTGSENDALYEYLRQSVGNEAEIWLGLNGYIEGTGWVDMTGARIAYKNWETEITAQPDGGSNWAWENCAVLSGAANGKWFDKRCRDQLPYICQFGIV", "binding result": "binds"}, {"binder": "064-36.1E10 (designed binder, on phage) ALQTVCLKGTKVHMKCFLAFTQTKTFHEASEDCISRGGTLSTPQTGSENDALYEYLRQSVGNEAEIWLGLNGFLAGVGWVDMTGARIAYKNWETEITAQPDGGWWTRWENCAVLSGAANGKWFDKRCRDQLPYICQFGIV", "binding result": "binds"}, {"binder": "064-36.1B7 (designed binder, on phage) ALQTVCLKGTKVHMKCFLAFTQTKTFHEASEDCISRGGTLSTPQTGSENDALYEYLRQSVGNEAEIWLGLNGWMAGVGWVDMTGARIAYKNWETEITAQPDGGRRLPWENCAVLSGAANGKWFDKRCRDQLPYICQFGIV", "binding result": "binds"}, {"binder": "064-40.1E11 (designed binder, on phage) ALQTVCLKGTKVHMKCFLAFTQTKTFHEASEDCISRGGTLSTPQTGSENDALYEYLRQSVGNEAEIWLGLNWLSLFSPWVDMTGARIAYKNWETEITAQPDGGRGVRGENCAVLSGAANGKWFDKRCRDQLPYICQFGIV", "binding result": "binds"}, {"binder": "064-36.1G4 (designed binder, on phage) ALQTVCLKGTKVHMKCFLAFTQTKTFHEASEDCISRGGTLSTPQTGSENDALYEYLRQSVGNEAEIWLGLNRCLQGVGWVDMTGARIAYKNWETEITAQPDGGRGWPWENCAVLSGAANGKWFDKRCRDQLPYICQFGIV", "binding result": "binds"}, {"binder": "014-42.3D9 (designed binder, on phage) ALQTVCLKGTKVHMKCFLAFTQTKTFHEASEDCISRGGTLSTPQTGSENDALYEYLRQSVGNEAEIWLGLNGYLAGVGWVDMTGARIAYKNWETEITAQPDGGRGFRWENCAVLSGAANGKWFDKRCRDQLPYICQFGIV", "binding result": "binds"}]}]}
